From paper PMC5327734 (Nature communications, 2015) come the findings set out here.

In this assay the target is T1, pre-activated, recombinant, full length, human MST1 protein kinase (human, UniProt Q13043 1-487).
T1 sequence (looked up): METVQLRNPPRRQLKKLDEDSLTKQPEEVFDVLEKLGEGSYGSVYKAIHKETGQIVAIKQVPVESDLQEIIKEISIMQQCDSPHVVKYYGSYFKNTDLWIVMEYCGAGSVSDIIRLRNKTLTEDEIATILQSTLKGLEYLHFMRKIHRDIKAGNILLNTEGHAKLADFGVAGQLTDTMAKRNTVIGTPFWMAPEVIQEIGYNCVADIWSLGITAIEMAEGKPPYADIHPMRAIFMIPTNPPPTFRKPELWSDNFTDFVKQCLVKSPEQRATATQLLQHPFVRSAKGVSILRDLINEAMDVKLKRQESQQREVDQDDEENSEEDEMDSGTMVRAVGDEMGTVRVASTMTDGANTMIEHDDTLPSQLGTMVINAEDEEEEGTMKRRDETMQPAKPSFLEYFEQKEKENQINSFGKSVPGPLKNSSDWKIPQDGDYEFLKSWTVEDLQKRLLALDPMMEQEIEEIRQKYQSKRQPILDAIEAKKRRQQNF
The assay is described as follows: pull-down.

B1: GST-YAP1-PR/TEAD (residues 2-150) (domain or fragment, UniProt P46937 2-150, looked up)
chain: DPGQQPPPQPAPQGQGQPPSQPPQGQGPPSGPGQPAPAATQAAPQAPPAGHQIVHVRGDSETDLEALFNAVMNPKTANVPQTVPMRLRKLPDSFFKPPEPKSHSRQASTDAGTAGALTPQHVRAHSSPASLQLGAVSPGTLTPTGVVSG
For the molecule B1, the binding result is on record as “binds”.
